This note sets out measurements from patent publication US20210171647A1 (WUXI BIOLOGICS SHANGHAI, published 2021).

Experiment in all cases: ELISA, antibody coated, OX40-ECD.His mutant supernatant; relative to silent alanine substitutions;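 further: captured OX40 mutant protein detected with HRP-labelled anti-His antibody, absorbance read-out, scaled to the mean signal of control mutants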
For one assay, the target named is T1, human OX40-ECD.His S91A (human, UniProt P43489 29-214).
T1 construct: extracellular domain; not shown: C-terminal His-tag
T1 sequence (looked up): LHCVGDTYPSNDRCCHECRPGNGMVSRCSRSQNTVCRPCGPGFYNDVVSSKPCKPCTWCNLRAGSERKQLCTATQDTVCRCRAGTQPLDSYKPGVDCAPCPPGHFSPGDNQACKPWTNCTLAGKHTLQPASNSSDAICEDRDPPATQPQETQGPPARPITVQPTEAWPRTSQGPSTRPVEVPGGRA

The target in the next assay is T2, human OX40-ECD.His P172A (human, UniProt P43489 29-214).
T2 construct: extracellular domain; not shown: C-terminal His-tag
T2 sequence (looked up): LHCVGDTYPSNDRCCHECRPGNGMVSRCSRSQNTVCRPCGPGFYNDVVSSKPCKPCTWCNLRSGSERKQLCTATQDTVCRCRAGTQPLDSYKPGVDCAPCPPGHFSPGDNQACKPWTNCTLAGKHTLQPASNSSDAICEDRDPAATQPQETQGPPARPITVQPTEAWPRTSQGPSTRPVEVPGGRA

In the next assay the target is T3, human OX40-ECD.His R47A (human, UniProt P43489 29-214).
T3 construct: extracellular domain; not shown: C-terminal His-tag
T3 sequence (looked up): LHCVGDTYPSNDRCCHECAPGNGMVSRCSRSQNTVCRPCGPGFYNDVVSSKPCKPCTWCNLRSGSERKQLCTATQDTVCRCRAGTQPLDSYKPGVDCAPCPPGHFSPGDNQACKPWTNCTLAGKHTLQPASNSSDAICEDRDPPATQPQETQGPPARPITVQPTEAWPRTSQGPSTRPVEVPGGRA

The next assay addresses T4, human OX40-ECD.His M52A (human, UniProt P43489 29-214).
T4 construct: extracellular domain; not shown: C-terminal His-tag
T4 sequence (looked up): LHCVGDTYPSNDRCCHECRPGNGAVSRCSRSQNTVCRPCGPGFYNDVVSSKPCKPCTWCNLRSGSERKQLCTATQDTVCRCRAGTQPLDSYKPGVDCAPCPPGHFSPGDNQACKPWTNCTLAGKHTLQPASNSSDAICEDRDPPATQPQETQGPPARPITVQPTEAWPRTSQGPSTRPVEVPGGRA

The next assay deals with T5, human OX40-ECD.His T100A (human, UniProt P43489 29-214).
T5 construct: extracellular domain; not shown: C-terminal His-tag
T5 sequence (looked up): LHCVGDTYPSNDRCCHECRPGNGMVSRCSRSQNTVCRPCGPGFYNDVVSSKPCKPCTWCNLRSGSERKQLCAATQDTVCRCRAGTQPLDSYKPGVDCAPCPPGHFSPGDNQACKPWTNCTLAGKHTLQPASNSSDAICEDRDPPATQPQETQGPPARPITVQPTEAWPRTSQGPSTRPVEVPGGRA

The next assay deals with T6, human OX40-ECD.His A111G (human, UniProt P43489 29-214).
T6 construct: extracellular domain; not shown: C-terminal His-tag
T6 sequence (looked up): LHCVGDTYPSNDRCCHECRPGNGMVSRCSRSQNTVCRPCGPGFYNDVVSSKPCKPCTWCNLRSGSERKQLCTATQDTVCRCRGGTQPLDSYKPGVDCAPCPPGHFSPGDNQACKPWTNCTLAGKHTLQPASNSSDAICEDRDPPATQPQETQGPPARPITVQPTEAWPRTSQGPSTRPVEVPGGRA

For a further assay, the target named is T7, human OX40-ECD.His R90A (human, UniProt P43489 29-214).
T7 construct: extracellular domain; not shown: C-terminal His-tag
T7 sequence (looked up): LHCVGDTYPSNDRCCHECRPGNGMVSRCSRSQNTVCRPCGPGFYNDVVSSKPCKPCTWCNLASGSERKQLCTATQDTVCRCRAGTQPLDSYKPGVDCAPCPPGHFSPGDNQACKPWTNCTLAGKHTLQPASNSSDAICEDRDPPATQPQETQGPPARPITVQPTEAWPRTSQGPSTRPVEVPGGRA

A further assay concerns the target T8, human OX40-ECD.His Q139A (human, UniProt P43489 29-214).
T8 construct: extracellular domain; not shown: C-terminal His-tag
T8 sequence (looked up): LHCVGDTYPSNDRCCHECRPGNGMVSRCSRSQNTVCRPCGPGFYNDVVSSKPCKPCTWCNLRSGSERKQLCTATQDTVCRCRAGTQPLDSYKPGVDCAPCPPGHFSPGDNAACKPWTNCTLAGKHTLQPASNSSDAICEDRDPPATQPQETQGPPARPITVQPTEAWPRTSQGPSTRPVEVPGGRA

The target of a further assay is T9, human OX40-ECD.His S57A (human, UniProt P43489 29-214).
T9 construct: extracellular domain; not shown: C-terminal His-tag
T9 sequence (looked up): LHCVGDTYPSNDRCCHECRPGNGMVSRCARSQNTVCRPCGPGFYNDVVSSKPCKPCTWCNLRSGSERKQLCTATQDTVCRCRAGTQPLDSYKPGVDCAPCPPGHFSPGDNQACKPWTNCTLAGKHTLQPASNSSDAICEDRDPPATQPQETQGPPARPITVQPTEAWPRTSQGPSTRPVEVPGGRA

In another assay the target is T10, human OX40-ECD.His A126G (human, UniProt P43489 29-214).
T10 construct: extracellular domain; not shown: C-terminal His-tag
T10 sequence (looked up): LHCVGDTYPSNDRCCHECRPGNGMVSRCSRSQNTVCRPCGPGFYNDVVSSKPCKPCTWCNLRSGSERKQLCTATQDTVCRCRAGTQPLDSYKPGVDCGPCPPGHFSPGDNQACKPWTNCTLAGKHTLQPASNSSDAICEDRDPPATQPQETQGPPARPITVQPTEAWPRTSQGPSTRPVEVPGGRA

Method for human OX40-ECD.His A111G: (§1) After interacting with the supernatant that contains quantified OX40 mutants or human OX40-ECD.His protein, HRP conjugated anti-His antibody (1:5000, GenScript-A00612, CHN) was added as detection antibody. Absorbance was normalized according to the average of control mutants.
Method for human OX40-ECD.His A126G: as §1
Method for human OX40-ECD.His M52A: as §1
Method for human OX40-ECD.His P172A: as §1
Method for human OX40-ECD.His Q139A: as §1
Method for human OX40-ECD.His R47A: as §1
Method for human OX40-ECD.His R90A: as §1
Method for human OX40-ECD.His S57A: as §1
Method for human OX40-ECD.His S91A: as §1
Method for human OX40-ECD.His T100A: as §1

B1: 1.134.9-u1-IgG1L (antibody, V domains shown)
VH: QVQLQESGPGLVKPSGTLSLTCAVSGGSISSYNWWSWVRQPPGKGLEWIGEIYHGGNTNYNPSLKSRVTMSVDNSKNQFSLKLSSVTAADTAVYYCARAPGDWGGSPYFDFWGQGTLVTVSS
VL: SSELTQDPAVSVALGQTVRITCQGDNLRTYYASWYQQKPGQAPILLIYGRNKRPSGIPDRFSGSSSGNTASLTITGAQAEDEAAYYCNSRDSSGNPVVFGGGTKLTVL
notes: fully human IgG1, lambda
For B1, the “Fold Change” value with human OX40-ECD.His S91A turned out to be 0.886; in the assay with human OX40-ECD.His P172A, 1.02; with human OX40-ECD.His R47A, 1; with human OX40-ECD.His M52A it was 0.977; with human OX40-ECD.His T100A, 0.557; with human OX40-ECD.His A111G, 0.853. Also, the “Fold Change” value was found to be 1.01 in the assay with human OX40-ECD.His R90A, 0.999 with human OX40-ECD.His Q139A, 0.963 with human OX40-ECD.His S57A and 0.954 in the assay with human OX40-ECD.His A126G.
